How the values were obtained:
[1] = molecular target: T1, human FcγRIIa (CD32) expressed on transfected COS-7 cells (human, UniProt P12318 34-317); test: flow cytometry on cells
T1 sequence (looked up): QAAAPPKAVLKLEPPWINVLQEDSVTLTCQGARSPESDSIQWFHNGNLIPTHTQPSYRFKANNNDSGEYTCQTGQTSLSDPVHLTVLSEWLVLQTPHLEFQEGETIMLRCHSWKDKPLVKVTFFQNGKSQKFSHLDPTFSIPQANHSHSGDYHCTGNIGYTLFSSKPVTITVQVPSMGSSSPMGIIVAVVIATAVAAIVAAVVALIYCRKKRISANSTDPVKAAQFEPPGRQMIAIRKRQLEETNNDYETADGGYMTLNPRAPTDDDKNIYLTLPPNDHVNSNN

[2] = molecular target: FcγRII (CD32) on K-562 cells (human (endogenous in K-562)) (UniProt P12318); test: flow cytometry on cells

B1: C-reactive protein (CRP), human (natural protein, UniProt P02741 19-224, looked up)
chain: QTDMSRKAFVFPKESDTSYVSLKAPLTKPLKAFTVCLHFYTELSSTRGYSIFSYATKRQDNEILIFWSKDIGYSFTVGGSEILFEVPEVTVAPVHICTSWESASGIVEFWVDGKPRVRKSLKKGYTVGAEASIILGQEQDSFGGNFEGSQSLVGDIGNVNMWDFVLSPDEINTIYLGGPFSPNVLNWRALKYEVQGEVFTKPQLWP
Kd [1]: 66 nM | Kd [2]: 97 nM

— paper PMC2195602 (The Journal of Experimental Medicine, 1999)
